Measured values reported in US20240287172A1 (SCIRHOM, published 2024).

Target: T1, hiR2-FL-F588H-T7 (human, UniProt Q6PJF5 1-856)
T1 sequence: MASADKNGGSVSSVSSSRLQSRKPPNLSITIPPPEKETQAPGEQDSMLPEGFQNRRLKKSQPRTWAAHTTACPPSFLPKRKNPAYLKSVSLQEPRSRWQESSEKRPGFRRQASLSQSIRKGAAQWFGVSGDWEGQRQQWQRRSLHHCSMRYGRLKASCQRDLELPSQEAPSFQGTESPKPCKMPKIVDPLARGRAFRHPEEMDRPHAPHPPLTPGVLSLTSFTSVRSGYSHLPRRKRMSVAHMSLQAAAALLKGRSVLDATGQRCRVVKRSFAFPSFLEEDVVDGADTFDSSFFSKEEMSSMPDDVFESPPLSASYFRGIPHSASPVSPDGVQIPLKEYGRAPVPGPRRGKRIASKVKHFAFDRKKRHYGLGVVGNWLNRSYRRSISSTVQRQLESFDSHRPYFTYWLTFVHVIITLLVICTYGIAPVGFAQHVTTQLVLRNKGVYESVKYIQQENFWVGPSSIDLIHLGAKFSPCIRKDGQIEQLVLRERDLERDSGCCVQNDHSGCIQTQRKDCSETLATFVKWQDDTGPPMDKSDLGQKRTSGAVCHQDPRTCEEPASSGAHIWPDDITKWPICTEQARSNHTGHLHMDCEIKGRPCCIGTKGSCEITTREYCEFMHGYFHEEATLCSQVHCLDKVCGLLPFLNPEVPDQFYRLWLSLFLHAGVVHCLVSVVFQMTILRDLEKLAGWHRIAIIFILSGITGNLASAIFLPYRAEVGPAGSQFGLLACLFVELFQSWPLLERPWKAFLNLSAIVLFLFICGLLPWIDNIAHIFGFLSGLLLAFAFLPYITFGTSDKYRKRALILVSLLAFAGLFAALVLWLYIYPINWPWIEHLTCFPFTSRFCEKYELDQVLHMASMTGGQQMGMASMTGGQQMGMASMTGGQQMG
Experiment: FACS, MEF-DKO cells, 3 µg/ml
Outline: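 Binding read by flow cytometry after a PE goat anti-mouse IgG F(ab′)2 secondary (1:100, on ice, 1 h, dark). Before that, immortalized MEF-DKO lines carrying single-mutant hiR2-FL-T7 constructs were incubated 1 h on ice with 3 μg/ml antibody or FACS buffer alone.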

B1: antibody 3 (antibody, V domains shown)
VH: QVTLKESGPGILQPSQTLSLTCSFSGFSLTTFAMGIGWVRQPSGKGLEWLAHIWWDGEKYNNPVLKSRLTISKDTSKNQVFLRIANVDTPDTATYYCARISSIYYIIDNWGQGTSVTVSS
VL: DIVLTQSPATLSVTPGHSVSLSCRASQSISNNLHWYQKKSHESPRLLIKYVSQSISGIPSRFSGSGSGTDFTLSINSVETEDFGMYFCQQSYNWPLTFGAGTKLELK
notes: mouse IgG, kappa light chain; also called clone #3; purified antibody 3
- loss of binding vs wild type: ≥ 30%
